From publication PMC4382515

Substrate: N[C@@H](CCC(=O)O)C(=O)O
Assay: purified protein
Details: pH 4.6; 25.0 °C

B1: EcGadB (Escherichia coli K-12) (protein)
chain: MDKKQVTDLRSELLDSRFGAKSISTIAESKRFPLHEMRDDVAFQIINDELYLDGNARQNLATFCQTWDDENVHKLMDLSINKNWIDKEEYPQSAAIDLRCVNMVADLWHAPAPKNGQAVGTNTIGSSEACMLGGMAMKWRWRKRMEAAGKPTDKPNLVCGPVQICWHKFARYWDVELREIPMRPGQLFMDPKRMIEACDENTIGVVPTFGVTYTGNYEFPQPLHDALDKFQADTGIDIDMHIDAASGGFLAPFVAPDIVWDFRLPRVKSISASGHKFGLAPLGCGWVIWRDEEALPQELVFNVDYLGGQIGTFAINFSRPAGQVIAQYYEFLRLGREGYTKVQNASYQVAAYLADEIAKLGPYEFICTGRPDEGIPAVCFKLKDGEDPGYTLYDLSERLRLRGWQVPAFTLGGEATDIVVMRIMCRRGFEMDFAELLLEDYKASLKYLSDHPKLQGIAQQNSFKHT
Km: 1.10 ± 0.18 mM | kcat/Km: 13900 ± 2830 M⁻¹ s⁻¹
